# Assay results: a protein production outcome set (Wang et al. 2014)
# Assay: label from the status in PepcDB records
row,Sequence,protein production
1,MATAAASVVSSETGDLRAYMAANPAAVIEEVAKQWNVSPHAVIAALPDGMARLGPGDGFVAAMNDIATWGEVTLIVHTEDAIFEFTGEVPRGEISRGYFNLMQPKGLHGHLRHDRCGALAFVERPFMGKASAFVAFLNRDGGIMFKVFVGRDANRELRADQLARFHALAKQFSEEHSALEHHHHHH,failed
2,MATCIWLRSCGARRLGSTFPGCRLRPRAGGLVPASGPAPGPAQLRCYAGRLAGLSAALLRTDSFVGGRWLPAAATFPVQDPASGAALGMVADCGVREARAAVRAAYEAFCRWREVSAKERSSLLRKWYNLMIQNKDDLARIITAESGKPLKEAHGEILYSAFFLEWFSEEARRVYGDIIHTPAKDRRALVLKQPIGVAAVITPWNFPSAMITRKVGAALAAGCTVVVKPAEDTPFSALALAELASQAGIPSGVYNVIPCSRKNAKEVGEAICTDPLVSKISFTGSTTTGKILLHHAANSVKRVSMELGGLAPFIVFDSANVDQAVAGAMASKFRNTGQTCVCSNQFLVQRGIHDAFVKAFAEAMKKNLRVGNGFEEGTTQGPLINEKAVEKVEKQVNDAVSKGATVVTGGKRHQLGKNFFEPTLLCNVTQDMLCTHEETFGPLAPVIKFDTEEEAIAIANAADVGLAGYFYSQDPAQIWRVAEQLEVGMVGVNEGLISSVECPFGGVKQSGLGREGSKYGIDEYLELKYVCYGGL,failed
3,MATEKYHEILKKYFLSFETGDFSQVQFSCNLEFLSPISGNTLKGTEEVIPFLKGVTTRVAEVNIMSTTVEYPRASGVWQMRTTKGTLYTLHNFFRLDEEGIVYVWPMFDPKAVMENPDALIQWLTGKDY,not failed
4,MATFFFKTNYYQEIMLKRIFFLMIFFVSQTMASVFTHEEVQILKKHFLNNFQTNGAIVASPSQYNPNYYYDWIRDSAIAMGLVETWYEASQSARYKKLLLEYVSWTEKIQHQADPIAGQDILGEPKFYINGNPFDGEWGRPQNDGPALRASVLIRFAQQLLDHNEIDYVKSHLYNNTMDPQSMGTIKMDLEYIAHHWQDANFDLWEEVYGHHFFTAMAQQKALTDGAILAHQLHDRQAAVFYEMQANLINSRLKQHLDHQNKIIQATLLPHPGPQKTLELDSSVMLGILINPQKEGVFAPHHTFVQNTAKALHEQFNLMFPINKNRSGAILFGRYPGDTYDGYQTNSIGNPWFILTATMAEYYFTMAHNLSPNSINKLHIQNYLKKGDNYLRLIKQYGPDLNLSEQINLNTGVQQGATSLTWSYVSVLRAIHLREQLENRIKTTGWNTY,failed
5,MATFMTEDFLLKNDIARTLYHKYAAPMPIYDFHCHLSPQEIADDRRFDNLGQIWLEGDHYKWRALRSAGVDESLITGKETSDYEKYMAWANTVPKTLGNPLYHWTHLELRRPFGITGTLFGPDTAESIWTQCNEKLATPAFSARGIMQQMNVRMVGTTDDPIDSLEYHRQIAADDSIDIEVAPSWRPDKVFKIELDGFVDYLRKLEAAADVSITRFDDLRQALTRRLDHFAACGCRASDHGIETLRFAPVPDDAQLDAILGKRLAGETLSELEIAQFTTAVLVWLGRQYAARGWVMQLHIGAIRNNNTRMFRLLGPDTGFDSIGDNNISWALSRLLDSMDVTNELPKTILYCLNPRDNEVLATMIGNFQGPGIAGKVQFGSGWWFNDQKDGMLRQLEQLSQMGLLSQFVGMLTDSRSFLSYTRHEYFRRILCNLLGQWAQDGEIPDDEAMLSRMVQDICFNNAQRYFTIK,not failed
6,MATGLGFFKLSFLLSLLSGGSDLLGPDAESGVAQIGKFPPSCNRIECPSYELVHSGNGYEIRRYNNTVWVSTEPIPDISLVDATRTAFFQLFAYIQGKNEYHQKIEMTAPVISQVSPSDGPFCESSFTVSFYVPKKNQPDPAPSENLHIQKWNSRYVAVRQFSGFVSDDSIGEQAAALDSSLKGTAWANAIAKSKEDGGVGSDSAYTVAQYNSPFEFSGRVNEIWLPFELDV,failed
7,MATGTATEKPKIVWNEGRHRFETDDHEAFIEYKMKNDGKVMDLVRTFVPPSKAGLGLASHLCVAAFEHASEHSFSIIPTCSYVSVYISSFLKKLR,failed
8,MATLLGFSQTKFHHCGVWISTPPCSSSSTVVSMVGLNRTDSKKLRSDFLGQIGYEDRRQVRHSYCRSSLAVKMSWDGPLASVKLIIQGKNLELSEPIKQHVEEKVGKSVQKHSHLVREVDVRLSVRGGEFGKGPRIRRCEVTLFTKKHGVVRAEEDAETVYACIDLVSTIIQRKLRKIKEKDSDHGRHMKGFNRLKVREPVIEPVVEDVEDSTDSSVGEEEEEDDLIKEIVRTKTFEMPPLTVAEAVEQLELVSHDFYGFQNEETGEINIVYKRKEGGYGLIIPKKDGKAEKVEPLPTEQLNEHSFAE,failed
9,MATLPAAETWIDGGGGVGADAVNLTASLAAGAATGAVETGWLQLLDQAGNLSSSPSALGLPVASPAPSQPWANLTNQFVQPSWRIALWSLAYGVVVAVAVLGNLIVIWIILAHKRMRTVTNYFLVNLAFSDASMAAFNTLVNFIYALHSEWYFGANYCRFQNFFPITAVFASIYSMTAIAVDRYMAIIDPLKPRLSATATKIVIGSIWILAFLLAFPQCLYSKTKVMPGRTLCFVQWPEGPKQHFTYHIIVIILVYCFPLLIMGITYTIVGITLWGGEIPGDTCDKYHEQLKAKRKVVKMMIIVVMTFAICWLPYHIYFILTAIYQQLNRWKYIQQVYLASFWLAMSSTMYNPIIYCCLNKRFRAGFKRAFRWCPFIKVSSYDELELKTTRFHPNRQSSMYTVTRMESMTVVFDPNDADTTRSSRKKRATPRDPSFNGCSRRNSKSASATSSFISSPYTSVDEYS,failed
10,MATRFDVKTIVKDKRFWIASFIIVWAAGLQGHMMWLQKQESFKQKFGTIDEDDHK,failed
11,MATTTSAACPIFSLSLLGRFVLTGPDGAVSLPNKKLAGLLAFLACMAPDPQSREKLSTLLWGSYLDAQAKQNLRQALFKLRQILGQDALRSDGELVSLNAMVIACDVSQFEELVQDGSRDALSAAADLYRGRLADDISVGEECWSEWVAGERERLSELALGAMVTLGGHELSEGRAEQALRTGQRANALNNLREDSHRLIMRALSATGRNAEALKYYRDVVALLKRELSTEPDLATRSLAAELRSNHPQNAAPAAGEVAPEASPPPALVMHGERPSLVVLPFSNMSGDPEQDYFADGVTADIITALSRFRALVVIARGTSFALRDKGMTSQQIAQQLGVQYVLSGQIRKAGNRIRVSAELTHSGSEAQVWSDRYDRPLTDIFDLQDDVSSSVAAVVDPAVRSAEIERARRKPPTNLSAYDLYLRALHHLWGGTREDITKAIDLLRQSLSLDEARSPTLAALAWGLVMASPLGAHTSPDATTEALSLARRAVEQDGTDAFAHAVYGFTLFGPAGDNDQGRIHAVEAVRLNPSSAFAWGTLGMIDSMAGDYENAVTCLHRSLVLSPYDSMLHLWMTGLTASCFALGRHEDGIAWARKSVQHNPGNGTGHRMLAANLVAAGRLEEAREITRRRDATQKTTIRDLRAMRFFKQNDALERYLSAQQVAGVAD,failed
